Measurements: the supplement of paper PMC11865577

Tests used:
Assay in all cases: pull-down binding Z-score (relative to library population); higher = stronger binding
[1] = system: G-clamp-N3 (biotin conjugate); conditions: RNA library: Library-1 (pre-miRNA loops + repeats)
Procedure, shortened: (§1)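 Binding is given as a Z-score against the library mean and standard deviation, calculated after removing the beads-only signal and averaging barcoded replicate probes without their highest and lowest values. Cy5- or Cy3-end-labelled RNA library (1 μg) was heat-folded in phosphate/NaCl/KCl buffer and incubated 60 min at 25 °C with streptavidin beads bearing 100 pmol of biotin-conjugated small molecule. After three washes, RNA eluted in hot SDS was hybridised to a DNA barcode microarray for 20 h at 55.5 °C.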

[2] = system: TO-3-N3 (biotin conjugate); conditions: RNA library: Library-2
Procedure, shortened: as §1

[3] = system: TO-3-N3-2 (biotin conjugate); conditions: RNA library: Library-2
Procedure, shortened: as §1

[4] = system: TO-N3 (biotin conjugate); conditions: RNA library: Library-2
Procedure, shortened: as §1

[5] = system: TO-N3-2 (biotin conjugate); conditions: RNA library: Library-2
Procedure, shortened: as §1

Sequence | pull-down binding Z-score [1] | pull-down binding Z-score [2] | pull-down binding Z-score [3] | pull-down binding Z-score [4] | pull-down binding Z-score [5]
CAGAGGCAUCGGGUCAG [hsa-mir-4746] | 1.75 | 0.807 | 0.516 | 1.19 | 1.35
CAGAGGCUGGCUUUCCAAAACUCUG [hsa-mir-1913] | -0.379 | 0.996 | 0.266 | 0.884 | 0.235
CAGAGGGAGGCCAAGAAGACCUCUG [hsa-mir-4793] | 2.73 | -0.656 | -0.445 | -0.402 | 0.354
CAGAGGGGCUGGCAGUACUGCUCUG [hsa-mir-4649] | 2.75 | 0.999 | 0.258 | 1.08 | 1.22
CAGAGGUCCCACAGCAGGGCUGGAAAGCACACCUGUGGGACUUCUG [hsa-mir-3922] | 0.395 | 0.224 | 0.0101 | 0.231 | -0.164
CAGAGUGGGCUCACCUCUCGCCCACACUG [hsa-mir-6760] | -0.917 | -0.556 | -0.336 | -0.637 | -0.38
CAGAGUGUGCAUGGCAGGCU [hsa-mir-7156] | -0.349 | 0.383 | 0.342 | 0.869 | 0.86
CAGAGUUCCCUUCUUGUGAGCUCAG [hsa-mir-6733] | -0.936 | -0.518 | -0.714 | -0.415 | 0.42
CAGAUACUUUUUAAAAUUUGUUUGAGUUGAGGCAGAUUAAAUAUCUG [hsa-mir-4742] | 0.164 | -0.76 | 0.104 | -0.82 | -0.673
CAGCACUGAGCAGGCAGUGUUGU [hsa-mir-4288] | -0.48 | -0.241 | -0.325 | -0.149 | 0.42
CAGCAGCAGCAGCAGCAGCAGCAGCAGCAGCAGCAGCAGCAGCAGCAG [r(CAG)16] | 1.2 | 0.922 | -0.0193 | 1.6 | 1.29
CAGCCAUGACCUGACCUUCUGUCUG [hsa-mir-4677] | -0.499 | -0.163 | -0.165 | -0.0686 | 0.513
CAGCCCCGUGUGUUGAGGAAGGAAGG [hsa-mir-940] | 1.54 | 0.485 | 0.769 | 1.24 | 1.95
CAGCCCGUGGUGGGG [hsa-mir-3619] | 0.788 | 0.721 | 0.115 | 0.752 | 0.751
CAGCCCUGCACUGAAC [hsa-mir-614] | -1.84 | 0.285 | 0.00113 | 0.941 | 1.39
CAGCCUGGGGCAUCGGUUG [hsa-mir-5572] | -0.0198 | 2.41 | 1.31 | 2.01 | 1.02
CAGCCUGUUGUCAAGGCUG [hsa-mir-3130-1] | -0.13 | 0.535 | 0.129 | 0.712 | -0.199
CAGCCUUGACAACAGGCUG [hsa-mir-3130-2] | -0.151 | 0.503 | -0.184 | 0.391 | -0.289
CAGCUACACAAGCUG [hsa-mir-631] | 1.64 | -0.0598 | -0.33 | -0.53 | -0.859
CAGCUGUUGUCUCCAGAGCAUUCCAGCUG [hsa-mir-191] | -0.433 | 0.371 | -0.002 | 0.648 | 1.46
CAGCUUGCUCUGCUUU [hsa-mir-4303] | 0.072 | -0.387 | 0.0132 | -0.189 | 0.0746
CAGGAGUGGACACCUG [hsa-mir-1246] | -0.505 | -0.0928 | -0.238 | -0.198 | -0.454
CAGGAUUAGUGCUUAUGCUAAGAUGUCUUCACUG [hsa-mir-6773] | 0.887 | -0.824 | -0.269 | -0.75 | -0.301
CAGGCAGUGGAGUUACUU [hsa-mir-600] | -1.07 | 0.683 | 0.557 | 1.01 | 1
CAGGCCAGGGGCAGACAGUGGACAGAGAACAGUGCCCAAGACCACUG [hsa-mir-378e] | 1.13 | 0.426 | 0.736 | 1.27 | 1.73
CAGGCGGGGCAGCCCAAUGCCAUGGGCCUGAU [hsa-mir-4695] | 2.14 | 0.737 | 0.157 | 1.32 | 1.92

Sequence | pull-down binding Z-score [1] | pull-down binding Z-score [2] | pull-down binding Z-score [3] | pull-down binding Z-score [4] | pull-down binding Z-score [5]
CAGGCUGCUAAACAACAGAACGAGCACUG [hsa-mir-378f] | 0.125 | -0.22 | -0.122 | -0.0846 | 0.421
CAGGCUGGUCUCAAACUCCUGGUCUG [hsa-mir-1285-1] | -0.288 | -0.202 | -0.352 | -0.217 | -0.123
CAGGCUGUGGCUCUCUGAAAGUC [hsa-mir-148b] | -1.29 | 0.761 | 0.496 | 1.09 | 1.18
CAGGGAACUUUAAAACC [hsa-mir-4324] | 0.493 | 0.41 | 0.387 | 0.483 | 0.306
CAGGGCGGUGCGGCAGCCGCCACC [hsa-mir-3621] | -0.214 | 0.771 | 0.241 | 1.07 | 1.24
CAGGGGUUCUGAUAAACCCUUC [hsa-mir-6738] | -0.182 | 0.622 | -0.3 | 0.458 | 0.161
CAGGUAGUUUUGGCAUGACUCUACUG [hsa-mir-20b] | -0.719 | 0.0561 | -0.229 | 0.556 | 1.44
CAGGUGCCUCAAAGGGCAUCCCACCUG [hsa-mir-3151] | -0.124 | -0.578 | -0.452 | -0.673 | 0.0349
CAGGUGUUCUUAAAAUCACCUG [hsa-mir-875] | -0.405 | -0.63 | -0.143 | -0.806 | -1.05
CAGUAAGCCUUGACUUAUGGCUAAAUGCUUC [hsa-mir-4273] | -1.02 | -0.111 | 0.0166 | 0.0209 | 0.273
CAGUACUGGUCUUAGACUG [hsa-mir-554] | 0.887 | 0.477 | 0.172 | 0.368 | 0.25
CAGUAUGAAUGAAUUCAUGAUACUG [hsa-mir-3607] | 0.669 | -0.768 | -0.718 | -0.881 | -0.531
CAGUCAGUAAAUAUUUUUUUGUGAAUG [hsa-mir-511] | 0.202 | -0.305 | 0.0526 | -0.146 | -0.132
CAGUCCUGAGAUGCAGGGACUG [hsa-mir-4799] | 0.166 | -0.626 | -0.531 | -0.644 | -0.727
CAGUGAACUAUCAUUGUGCCACUG [hsa-mir-1254-1] | 0.978 | 0.06 | -0.125 | 0.135 | -0.0953
CAGUGACAUGCGUUUAAC [hsa-mir-4485] | -0.778 | 0.345 | 0.112 | 0.394 | 0.0479
CAGUGAGCCAAGAUCGUGCCACUG [hsa-mir-1273d] | -0.48 | -0.172 | -0.179 | -0.147 | -0.0234
CAGUGAGCUAUGAUCAUGUCCCUG [hsa-mir-1254-2] | 0.526 | 0.0243 | -0.1 | 0.105 | 0.362
CAGUGCACCUUCAUGAACCG [hsa-mir-938] | -1.11 | 0.249 | 0.209 | 0.758 | 1.14
CAGUGCUUUUAGAAAAUUUGUGUG [hsa-mir-581] | -0.904 | -0.514 | 0.00216 | -0.558 | -0.187
CAGUGGCAGAUUUUCCCAUAG [hsa-mir-4727] | -1.12 | -0.543 | -0.261 | -0.439 | -0.00285
CAGUGGCAUCUGUCAUUG [hsa-mir-4663] | -0.635 | -0.159 | -0.425 | -0.508 | -0.784
CAGUGGGGACAUG [hsa-mir-4531] | -0.559 | 2.18 | 1.52 | 1.77 | 0.957
CAGUGGUGCCAUCUCCCCUG [hsa-mir-5008] | -1.49 | -0.377 | -0.353 | -0.122 | 0.471
CAGUGUUAGCUCCAGAAGCAUUG [hsa-mir-3170] | 1.14 | 0.0378 | -0.107 | 0.171 | 0.644
CAGUUGUACUGUGGCUG [hsa-mir-1291] | 0.37 | 0.0428 | 0.154 | 0.076 | 0.0227

Sequence | pull-down binding Z-score [1] | pull-down binding Z-score [2] | pull-down binding Z-score [3] | pull-down binding Z-score [4] | pull-down binding Z-score [5]
CAUACAUAUGCCUACUACUACUUUCAUAUGUAGGCAUAUGUAUG [hsa-mir-7852] | -0.626 | -0.502 | -0.144 | -0.8 | -0.89
CAUACAUUUUGAAUAUGUAUG [hsa-mir-299] | -0.304 | 0.734 | -0.504 | 0.336 | -1.29
CAUAUGUAUGUAUGUAUGUCUGUUACACAUAUG [hsa-mir-3688-1] | -0.787 | -0.769 | -0.0225 | -0.818 | -0.421
CAUAUGUGUAACAGACAUACAUACAUACAUAUG [hsa-mir-3688-2] | -0.866 | -0.818 | -0.463 | -1.02 | -1.31
CAUCACUGGAAUGUUCCAGCGACU [hsa-mir-3654] | -0.704 | -0.233 | -0.469 | -0.267 | -0.17
CAUCAUUUGCACUACUGAUACUUGGGGUCAGAUAAUUGUUUGUGGUG [hsa-mir-4447] | 0.115 | -0.801 | -0.334 | -0.914 | -0.616
CAUCCCGGACGGCCUGUGAGGGAUG [hsa-mir-4787] | 1.57 | 0.8 | 0.0114 | 1.1 | 0.952
CAUGAGCCCUUUGGAAAGGUCUCGUG [hsa-mir-4711] | -0.633 | 0.395 | -0.105 | 0.16 | -0.478
CAUGAUUUGGAAAAAUUACUG [hsa-mir-6128] | -0.888 | -0.174 | -0.0805 | -0.151 | -0.315
CAUGCAGCAUGCUUGUCUG [hsa-mir-767] | -0.359 | -0.275 | -0.377 | -0.247 | 0.0549
CAUGCAGGCCACACUGACGGUAACGUUGCAGG [hsa-mir-431] | 1.54 | 0.647 | 0.263 | 1.08 | 1.01
CAUGCAUGUGUCUAGAAAUAUGUUUU [hsa-mir-507] | 0.0271 | -0.147 | 0.0237 | 0.0527 | 0.104
CAUGCGCUAUCUCUGUGUCGUAUG [hsa-mir-380] | -0.269 | -0.0846 | -0.301 | -0.0621 | -0.0393
CAUGUAUGUGUAUAUACAUAUAUAUG [hsa-mir-297] | 1.71 | 0.635 | -0.125 | 0.218 | -0.648
CAUGUGCUGAGUUCGUGCCAUAUG [hsa-mir-654] | 0.492 | -0.615 | -0.228 | -0.299 | 0.41
CAUGUGGUGGAACGAUGGAAACGGAACAUG [hsa-mir-218-2] | 1.07 | -0.477 | -0.027 | 0.162 | 1
CAUGUUAAGUGUUGUCCUACAG [hsa-mir-5087] | -0.819 | -0.483 | -0.142 | -0.368 | 0.127
CAUUAACGUGGACCAGACAAUAUUAAUG [hsa-mir-4491] | -1.14 | -0.339 | -0.12 | -0.0907 | -0.0295
CAUUACUAAACUCAGUAAUG [hsa-mir-451b] | 0.93 | -0.822 | -0.862 | -1.23 | -1.68
CAUUCACAUAGACUAUAAUUGAAUG [hsa-mir-652] | 0.721 | -0.751 | -0.353 | -0.944 | -0.703
CAUUCUUUGCUA [hsa-mir-567] | -1.3 | 0.85 | -0.257 | 0.664 | -0.53
CAUUGGUGUAAAGCUGGAGACCCACUG [hsa-mir-324] | 0.528 | 0.527 | 0.0332 | 0.738 | 1.09
CAUUGUAACAUGAUAGUG [hsa-mir-4264] | 0.389 | -0.752 | -0.295 | -0.441 | -0.45
CAUUGUAAUAGUUCAUAUGGGCACUG [hsa-mir-3660] | 2.34 | -0.0141 | -0.109 | 0.0211 | 0.0148
